# From patent US20150147330A1
# Target: human glypican-3 (GPC3), cell-associated (human) (UniProt P51654)
# Test: flow cytometry on cells expressing native GPC3, MFI titration, Scatchard plot (Prism)
substance,measurement,value
YP7 (antibody),Kd,0.3 nM
